Experimental findings from PMC5389482 are described below.

In this data set the test system is ParF (plasmid TP228 (segregation module)). Nature of the data set: fluorescence polarization. The note with it: 5 mM ATP, 5 mM Mg acetate, 150 mM K glutamate; 150 mM potassium glutamate (50-350 mM in salt series), pH 7.5, 5 mM magnesium acetate, 5 mM ATP or ADP, 25 C, 1 nM DNA.

For orientation: Kd means the concentration at which binding is half-saturated.

For “AATTACTCAATTACTCAATT (double strand) [20-mer]”, the Kd was 156 nM.
